Patent publication US20210380703A1 (RIGEL PHARMACEUTICALS, published 2021)

Legend:
[1] = molecular target: T1, Human ACVR2A (human, UniProt P27037 20-135, limits assumed); test: ELISA
T1 construct: also called activin receptor, type II A
Protocol: (§1) The binding of ACVR2A-specific monoclonal antibodies to human ACVR2A, mouse ACVR2A, biotinylated goat anti-human kappa light chain (positive control) and human Fc (negative control) were determined by ELISA.

[2] = molecular target: Mouse ACVR2A (mouse, UniProt P27038 20-135, limits assumed); test: ELISA
Protocol: as §1

[3] = molecular target: T2, Goat anti-Human Kappa; test: ELISA; positive control
T2 construct: Positive control; also called biotinylated goat anti-human kappa light chain
Protocol: as §1

[4] = molecular target: T3, biotinylated goat anti-human kappa light chain; test: ELISA, positive control
T3 construct: positive control of the ELISA
Protocol: as §1
Also: test concentration or dose not given here.

Sequence of Mouse ACVR2A (P27038 20-135 limits assumed): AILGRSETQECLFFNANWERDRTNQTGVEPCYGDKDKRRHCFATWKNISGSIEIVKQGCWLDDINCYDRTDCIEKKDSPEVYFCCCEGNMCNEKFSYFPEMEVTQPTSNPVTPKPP
T1 sequence (P27037 20-135 limits assumed): as the sequence (P27038 20-135 limits assumed) above, with R20K, I73V counted along it

Binder | optical density [1] | optical density [2] | optical density [3] | optical density [4]
375_B03 (antibody, V domains shown, VH/VL only) VH: EVQLLESGGGLVQPGGSLRLSCAASGFTFSSYSMNWVRQAPGKGLEWVAGINYNGGYTSYADSVKGRFTISRDNSKNTLYLQMNSLRAEDTAVYYCARGATWHDTHLDYWGQGTLVTVSS VL: DIQMTQSPSSLSASVGDRVTITCRASQSILTYLNWYQQKPGKAPKLLIYAATSRASGVPSRFSGSGSGTDFTLTISSLQPEDFATYYCQQSYDSPLTFGGGTKVEIK | 3.68 OD | 3.7 OD | 3.24 OD | 
369_F08 (antibody, V domains shown, Group III) VH: EVQLLESGGGLVQPGGSLRLSCAASGFTFSDYGMHWVRQAPGKGLEWVSGINYNSGYTSYADSVKGRFTISRDNSKNTLYLQMNSLRAEDTAVYYCARGANWHDTALDYWGQGTLVTVSS VL: DIQMTQSPSSLSASVGDRVTITCRASQSILSYLNWYQQKPGKAPKLLIYAASSLQSGVPSRFSGSGSGTDFTLTISSLQPEDFATYYCQQSYDLPLTFGGGTKVEIK |  |  |  | 3.1 OD
365_D11 (antibody, V domains shown, VH/VL only) VH: EVQLLESGGGLVQPGGSLRLSCAASGFTFDSYGMNWVRQAPGKGLEWVSNINYNSGYTSYADSVKGRFTISRDNSKNTLYLQMNSLRAEDTAVYYCARSANWHDTALDYWGQGTLVTVSS VL: DIQMTQSPSSLSASVGDRVTITCRASQSIVSYLNWYQQKPGKAPKLVIYAATSRASGVPSRFSGSGSGTDFTLTISSLQPEDFATYYCQQSYSSPLTFGGGTKVEIK | 2.34 OD | 2.22 OD | 3.38 OD | 
365_A08 (antibody, V domains shown, VH/VL only) VH: EVQLLESGGGLVQPGGSLRLSCAASGFTFSSYSMNWVRQAPGKGLEWVASINYNGGYKSYADSVKGRFTISRDNSKNTLYLQMNSLRAEDTAVYYCARGATWHDTHLDYWGQGTLVTVSS VL: DIQMTQSPSSLSASVGDRVTITCRASQSIITYLNWYQQKPGKAPKLVIYAATSRASGVPSRFSGSGSGTDFTLTISSLQPEDFATYYCQQSDNTPLTFGGGTKVEIK | 1.58 OD | 1.59 OD | 3.2 OD | 
365_D07 (antibody, V domains shown, VH/VL only) VH: EVQLLESGGGLVQPGGSLRLSCAASGFTFSSYGMNWVRQAPGKGLEWVSSINYNSGYKSYADSVKGRFTISRDNSKNTLYLQMNSLRAEDTAVYYCARGATWHDTHLDYWGQGTLVTVSS VL: not shown | 1.83 OD | 2.06 OD | 3.38 OD | 
365_A12 (antibody, V domains shown, VH/VL only) VH: EVQLLESGGGLVQPGGSLRLSCAASGFTFSSYGMHWVRQAPGKGLEWVAGINYNGGYTSYADSVKGRFTISRDNSKNTLYLQMNSLRAEDTAVYYCAKSANWHDTHLDYWGQGTLVTVSS VL: DIQMTQSPSSLSASVGDRVTITCRASQSILTYVNWYQQKPGKAPKLLIYAATSRHSGVPSRFSGSGSGTDFTLTISSLQPEDFATYYCQQSYENPLTFGGGTKVEIK | 2.67 OD | 2.87 OD | 3.67 OD | 
365_C04 (antibody, V domains shown, VH/VL only) VH: EVQLLESGGGLVQPGGSLRLSCAASGFTFDSYSMNWVRQAPGKGLEWVANINYNGGYKGYADSVKGRFTISRDNSKNTLYLQMNSLRAEDTAVYYCARGATWHDTHLDYWGQGTLVTVSS VL: DIQMTQSPSSLSASVGDRVTITCRASQSILTYLNWYQQKPGKAPKLVIYAATSLASGVPSRFSGSGSGTDFTLTISSLQPEDFATYYCQQSYDTPLTFGGGTKVEIK | 2.26 OD | 2.67 OD | 3.55 OD | 
365_D10 (antibody, V domains shown, VH/VL only) VH: EVQLLESGGGLVQPGGSLRLSCAASGFTFSSYSMNWVRQAPGKGLEWVAGINYNGGYTGYADSVKGRFTISRDNSKNTLYLQMNSLRAEDTAVYYCARGATWHDTHLDYWGQGTLVTVSS VL: DIQMTQSPSSLSASVGDRVTITCRASQSISTYLNWYQQKPGKAPKLLIYAATSRASGVPSRFSGSGSGTDFTLTISSLQPEDFATYYCQQSYESPLTFGGGTKVEIK | 2.39 OD | 2.24 OD | 3.27 OD | 

Other lines, results leading:

optical density [1] | optical density [2] | optical density [3] | optical density [4] | Binder
2.45 OD | 2.44 OD | 3.41 OD |  | 365_C10 (antibody, V domains shown, VH/VL only) VH: EVQLLESGGGLVQPGGSLRLSCAASGFTFSSYGMHWVRQAPGKGLEWVASINYNGGYTSYADSVKGRFTISRDNSKNTLYLQMNSLRAEDTAVYYCARSANWHDTALDYWGQGTLVTVSS VL: DIQMTQSPSSLSASVGDRVTITCRASQSILSYVNWYQQKPGKAPKLLIYAATSLASGVPSRFSGSGSGTDFTLTISSLQPEDFATYYCQQSYESPLTFGGGTKVEIK
3.4 OD | 3.24 OD | 3.44 OD |  | 365_A03 (antibody, V domains shown, VH/VL only) VH: EVQLLESGGGLVQPGGSLRLSCAASGFTFSSYSMNWVRQAPGKGLEWVAGINYNSGYKGYADSVKGRFTISRDNSKNTLYLQMNSLRAEDTAVYYCARSANWHDTALDYWGQGTLVTVSS VL: DIQMTQSPSSLSASVGDRVTITCRASQSILSYLNWYQQKPGKAPKLVIYAVTSRASGVPSRFSGSGSGTDFTLTISSLQPEDFATYYCQQSYDSPLTFGGGTKVEIK
2.04 OD | 1.94 OD | 3.27 OD |  | 365_A11 (antibody, V domains shown, VH/VL only) VH: EVQLLESGGGLVQPGGSLRLSCAASGFTFDDYGMNWVRQAPGKGLEWVSGINYNSGYTSYADSVKGRFTISRDNSKNTLYLQMNSLRAEDTAVYYCARSANWHDTALDYWGQGTLVTVSS VL: DIQMTQSPSSLSASVGDRVTITCRASQSILSYLNWYQQKPGKAPKLVIYAATSLASGVPSRFSGSGSGTDFTLTISSLQPEDFATYYCQQSYESPLTFGGGTKVEIK
2.15 OD | 2.33 OD | 3.45 OD |  | 365_C02 (antibody, V domains shown, VH/VL only) VH: EVQLLESGGGLVQPGGSLRLSCAASGFTFDSYSMNWVRQAPGKGLEWVSNINYNGGYKGYADSVKGRFTISRDNSKNTLYLQMNSLRAEDTAVYYCARGATWHDTHLDYWGQGTLVTVSS VL: DIQMTQSPSSLSASVGDRVTITCRASQSISTYLNWYQQKPGKAPKLVIYAATSRHSGVPSRFSGSGSGTDFTLTISSLQPEDFATYYCQQSYENPLTFGGGTKVEIK
1.52 OD | 1.35 OD | 3.38 OD |  | 365_D09 (antibody, V domains shown, VH/VL only) VH: EVQLLESGGGLVQPGGSLRLSCAASGFTFSSYGMHWVRQAPGKGLEWVSGINYNSGYTSYADSVKGRFTISRDNSKNTLYLQMNSLRAEDTAVYYCARSANWHDTALDYWGQGTLVTVSS VL: DIQMTQSPSSLSASVGDRVTITCRASQSILSYLNWYQQKPGKAPKLLIYAATSRASGVPSRFSGSGSGTDFTLTISSLQPEDFATYYCQQSDESPLTFGGGTKVEIK
2.11 OD | 2.21 OD | 3.23 OD |  | 365_B07 (antibody, V domains shown, VH/VL only) VH: EVQLLESGGGLVQPGGSLRLSCAASGFTFSSYGMHWVRQAPGKGLEWVASINYNSGYTSYADSVKGRFTISRDNSKNTLYLQMNSLRAEDTAVYYCARSANWHDTALDYWGQGTLVTVSS VL: DIQMTQSPSSLSASVGDRVTITCRASQSILTYLNWYQQKPGKAPKLLIYAATSRASGVPSRFSGSGSGTDFTLTISSLQPEDFATYYCQQSYENPLTFGGGTKVEIK
2.66 OD | 2.78 OD | 3.67 OD |  | 365_C11 (antibody, V domains shown, VH/VL only) VH: EVQLLESGGGLVQPGGSLRLSCAASGFTFSSYSMNWVRQAPGKGLEWVAGINYNGGYKSYADSVKGRFTISRDNSKNTLYLQMNSLRAEDTAVYYCARSANWHDTHLDYWGQGTLVTVSS VL: DIQMTQSPSSLSASVGDRVTITCRASQSIITYLNWYQQKPGKAPKLVIYAVTSRASGVPSRFSGSGSGTDFTLTISSLQPEDFATYYCQQSYSLPLTFGGGTKVEIK
2.57 OD | 2.61 OD | 3.53 OD |  | 365_D12 (antibody, V domains shown, VH/VL only) VH: EVQLLESGGGLVQPGGSLRLSCAASGFTFDSYGMNWVRQAPGKGLEWVSNINYNGGYTGYADSVKGRFTISRDNSKNTLYLQMNSLRAEDTAVYYCARSANWHDTALDYWGQGTLVTVSS VL: DIQMTQSPSSLSASVGDRVTITCRASQSIVTYLNWYQQKPGKAPKLVIYAATSRASGVPSRFSGSGSGTDFTLTISSLQPEDFATYYCQQSYDTPLTFGGGTKVEIK
2.84 OD | 2.75 OD | 3.58 OD |  | 365_B11 (antibody, V domains shown, VH/VL only) VH: EVQLLESGGGLVQPGGSLRLSCAASGFTFSSYGMHWVRQAPGKGLEWVAGINYNGGYTSYADSVKGRFTISRDNSKNTLYLQMNSLRAEDTAVYYCARSANWHDTALDYWGQGTLVTVSS VL: DIQMTQSPSSLSASVGDRVTITCRASQSIISYLNWYQQKPGKAPKLVIYATTSRHSGVPSRFSGSGSGTDFTLTISSLQPEDFATYYCQQSYDSPLTFGGGTKVEIK
2.54 OD | 2.7 OD | 3.52 OD |  | 365_D02 (antibody, V domains shown, VH/VL only) VH: EVQLLESGGGLVQPGGSLRLSCAASGFTFSSYSMHWVRQAPGKGLEWVASINYNGGYTSYADSVKGRFTISRDNSKNTLYLQMNSLRAEDTAVYYCARGATWHDTHLDYWGQGTLVTVSS VL: DIQMTQSPSSLSASVGDRVTITCRASQSIVTYLNWYQQKPGKAPKLLIYAATSLASGVPSRFSGSGSGTDFTLTISSLQPEDFATYYCQQSYDNPLTFGGGTKVEIK
2.45 OD | 2.48 OD | 3.3 OD |  | 365_A09 (antibody, V domains shown, VH/VL only) VH: EVQLLESGGGLVQPGGSLRLSCAASGFTFSSYGMHWVRQAPGKGLEWVASINYNGGYTSYADSVKGRFTISRDNSKNTLYLQMNSLRAEDTAVYYCARGATWHDTHLDYWGQGTLVTVSS VL: DIQMTQSPSSLSASVGDRVTITCRASQSILSYVNWYQQKPGKAPKLLIYAATSRASGVPSRFSGSGSGTDFTLTISSLQPEDFATYYCQQSYDLPLTFGGGTKVEIK
